Like-named read-outs stand apart in the source and are kept apart here.
Experiments:
pull-down [1] = target: the molecule itself; assay: pull-down
pull-down [2] = target: the molecule itself; assay: pull-down; remark: listed apart in the source

B1: cytoplasmic domain of synaptotagmin Ib, D230,232N mutant (domain or fragment, rat, UniProt P21707 96-421, looked up)
chain: GGKNAINMKDVKDLGKTMKDQALKDDDAETGLTDGEEKEEPKEEEKLGKLQYSLDYDFQNNQLLVGIIQAAELPALDMGGTSDPYVKVFLLPDKKKKFETKVHRKTLNPVFNEQFTFKVPYSELGGKTLVMAVYNFNRFSKHDIIGEFKVPMNTVDFGHVTEEWRDLQSAEKEEQEKLGDICFSLRYVPTAGKLTVVILEAKNLKKMDVGGLSDPYVKIHLMQNGKRLKKKKTTIKKNTLNPYYNESFSFEVPFEQIQKVQVVVTVLDYDKIGKNDAIGKVFVGYNSTGAELRHWSDMLANPRRPIAQWHTLQVEEEVDAMLAVKK
B1: binds (pull-down [1]).

B2: C2B domain of synaptotagmin Ib (residues 248–421) (domain or fragment, rat, UniProt P21707 248-421, looked up)
chain: NTVDFGHVTEEWRDLQSAEKEEQEKLGDICFSLRYVPTAGKLTVVILEAKNLKKMDVGGLSDPYVKIHLMQNGKRLKKKKTTIKKNTLNPYYNESFSFEVPFEQIQKVQVVVTVLDYDKIGKNDAIGKVFVGYNSTGAELRHWSDMLANPRRPIAQWHTLQVEEEVDAMLAVKK
B2: binds (pull-down [2]).
